Drawing on patent US20030068675, “Position dependent recognition of GNN nucleotide triplets by zinc fingers” (published 2003), this text covers Kd for 18 molecules.

Positions count from the first letter of the chain named.

Common to all, as to assay: EMSA
Settings in all cases: tags: MBP fusion
A general note: Mobility shift assays separate free from complexed probe on a gel.

Series [1] deals with ZFP SBS#998 (synthetic). Put shortly: (§1)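 Purified ZFP was titrated against labeled double-stranded target (1 nM or lower, at least 10-fold below expected Kd) carrying the natural binding site with flanks. Binding buffer was 10 mM Tris pH 7.5, 100 mM KCl, 1 mM MgCl2, 0.1 mM ZnCl2, 5 mM DTT, 10% glycerol, 0.02% BSA, with equilibration for at least 45 min. Bound and free target were separated on a 10% polyacrylamide gel.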
ZFP SBS#998 (synthetic), sequence (chain, as listed by the source): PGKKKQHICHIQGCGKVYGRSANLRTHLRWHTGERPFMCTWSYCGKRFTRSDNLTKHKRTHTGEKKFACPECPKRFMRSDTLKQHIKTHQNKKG

Series [2] deals with T1, ZFP SBS#1004 (synthetic).
T1 chain: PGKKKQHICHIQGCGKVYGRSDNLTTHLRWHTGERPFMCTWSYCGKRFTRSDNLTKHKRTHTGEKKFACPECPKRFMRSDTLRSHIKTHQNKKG
An outline of the steps: as §1

In series [3] the target is T2, ZFP SBS#1255 (synthetic).
T2 chain: T1 chain with R83K, S84Q
Put shortly:
as §1

For series [4], the target named is T3, ZFP SBS#1020 (synthetic).
T3 chain: T1 chain with R83K, S84Q
Put shortly: as §1

Series [5] deals with T4, ZFP SBS#1003 (synthetic).
T4 chain: T1 chain with D22A, T25R
An outline of the steps:
as §1

Series [6] deals with T5, ZFP SBS#1238 (synthetic).
T5 chain: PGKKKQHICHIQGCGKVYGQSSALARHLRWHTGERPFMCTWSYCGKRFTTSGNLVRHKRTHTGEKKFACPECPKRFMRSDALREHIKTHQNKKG
Put shortly: as §1

In series [7] the target is ZFP SBS#1250 (synthetic). An outline of the steps:
as §1

The target in series [8] is ZFP SBS#1237 (synthetic). An outline of the steps: as §1
ZFP SBS#1237 (synthetic), sequence (chain, as listed by the source): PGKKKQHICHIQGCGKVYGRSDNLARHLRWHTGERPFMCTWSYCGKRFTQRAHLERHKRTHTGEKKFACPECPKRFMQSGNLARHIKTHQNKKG
Series [9] deals with T6, ZFP SBS#1139 (synthetic).
T6 chain: T1 chain with T25A, T26R, R50D, S51R, D52S, N53D, K56R, R83T, S84Q
Put shortly: as §1

Series [10] concerns the target T7, ZFP SBS#1228 (synthetic).
T7 chain: T1 chain with T25A, T26R, R50D, S51R, D52S, N53D, K56R, T81D, R83T, S84Q
An outline of the steps:
as §1

In series [11] the target is T8, ZFP SBS#1249 (synthetic).
T8 chain: T1 chain with N23E, T26R, R50Q, D52G, N53H, K56R, S84E
An outline of the steps:
as §1

Series [12] concerns the target T9, ZFP SBS#1253 (synthetic).
T9 chain: T1 chain with N23E, T26R, R50Q, S51R, D52A, N53H, T55E, K56R, S84E
Put shortly:
as §1

In series [13] the target is T10, ZFP SBS#488 (synthetic).
T10 chain: T1 chain with N23H, T25A, T26R, K56T, T81H, R83T, S84T
Put shortly:
as §1

For series [14], the target named is T11, ZFP SBS#487 (synthetic).
T11 chain: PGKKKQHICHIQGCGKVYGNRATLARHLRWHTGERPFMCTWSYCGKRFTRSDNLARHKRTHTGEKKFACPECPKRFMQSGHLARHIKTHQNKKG
Put shortly:
as §1

The target in series [15] is ZFP SBS#485 (synthetic). An outline of the steps: as §1
ZFP SBS#485 (synthetic), sequence (chain, as listed by the source): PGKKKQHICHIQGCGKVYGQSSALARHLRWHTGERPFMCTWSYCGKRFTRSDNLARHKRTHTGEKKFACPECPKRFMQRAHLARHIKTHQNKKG
For series [16], the target named is T12, ZFP SBS#1240 (synthetic, UniProt P08047).
T12 chain: T1 chain with R20Q, D22G, N23S, T26R, K56R, T81H, R83S, S84R
Put shortly:
as §1

Series [17] concerns the target ZFP SBS#490 (synthetic). An outline of the steps:
as §1

Series [18] has as its target T13, ZFP SBS#1233 (synthetic).
T13 chain: T1 chain with N23A, T25R, T26E, R50D, S51R, D52S, K56R, T81H, R83T, S84T
Put shortly:
as §1

The target of series [19] is T14, ZFP SBS#1232 (synthetic).
T14 chain: T1 chain with N23A, T25R, T26E, R50D, S51R, D52S, K56R, T81H, R83T, S84T
An outline of the steps: as §1

The target in series [20] is T15, ZFP SBS#1247 (synthetic).
T15 chain: T5 chain with Q20R, S22D, A23E, A25T, N53A, V55T, R83T, E84R
Put shortly:
as §1

Series [21] has as its target T16, ZFP SBS#1246 (synthetic).
T16 chain: T5 chain with Q20R, S22D, A23E, A25T, N53S, V55T, R83T, E84R
Put shortly: as §1

Series [22] has as its target T17, ZFP SBS#1229 (synthetic).
T17 chain: T1 chain with N23E, T26R, R50M, D52H, N53H, T55S, K56R, T81N, R83T, S84Q
Put shortly:
as §1

Series [23] addresses ZFP SBS#1140 (synthetic). An outline of the steps:
as §1

The target of series [24] is ZFP SBS#1230 (synthetic). An outline of the steps: as §1
ZFP SBS#1230 (synthetic), sequence (chain, as listed by the source): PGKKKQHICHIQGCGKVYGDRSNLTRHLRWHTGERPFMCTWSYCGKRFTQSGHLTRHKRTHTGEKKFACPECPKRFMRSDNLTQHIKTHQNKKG
For series [25], the target named is T18, ZFP SBS#1231 (synthetic).
T18 chain: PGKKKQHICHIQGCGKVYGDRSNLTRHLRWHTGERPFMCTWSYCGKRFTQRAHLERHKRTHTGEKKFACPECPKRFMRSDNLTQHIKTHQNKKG
An outline of the steps: as §1

Series [26] deals with T19, ZFP SBS#1242 (synthetic).
T19 chain: T5 chain with S22A, A23N, N53S, V55T, A81H, R83S, E84R
Put shortly: as §1

Series [27] deals with T20, ZFP SBS#1243 (synthetic).
T20 chain: T5 chain with S22A, A23N, T50Q, G52S, N53A, V55T, A81H, R83S, E84R
Put shortly:
as §1

Series [28] deals with T21, ZFP SBS#261 (synthetic).
T21 chain: T11 chain with N20E, A22G, N53A, A55S, Q78R, G80D, H81N, A83S
An outline of the steps:
as §1

Series [29] has as its target T22, ZFP SBS#1223 (synthetic).
T22 chain: T1 chain with N23A, T26K, R50D, S51R, D52S, K56R, T81A, R83T, S84Q
Put shortly:
as §1

In series [30] the target is T23, ZFP SBS#1141 (synthetic).
T23 chain: T18 chain with D20R, R21G, S22D, N23A, R26S, Q50D, A52S, H53N, E55T, N81A
An outline of the steps: as §1

The target in series [31] is T24, ZFP SBS#1224 (synthetic).
T24 chain: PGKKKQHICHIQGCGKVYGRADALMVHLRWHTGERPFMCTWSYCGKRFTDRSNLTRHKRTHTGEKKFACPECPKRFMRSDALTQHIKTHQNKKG
Put shortly:
as §1

The target of series [32] is ZFP SBS#1227 (synthetic). Put shortly: as §1
ZFP SBS#1227 (synthetic), sequence (chain, as listed by the source): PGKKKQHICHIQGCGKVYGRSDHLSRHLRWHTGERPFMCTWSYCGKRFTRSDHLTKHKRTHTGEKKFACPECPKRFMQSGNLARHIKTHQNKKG
Series [33] addresses ZFP SBS#1244 (synthetic). Put shortly: as §1
Series [34] deals with T25, ZFP SBS#1245 (synthetic).
T25 chain: T11 chain with N20R, R21S, A22D, T23A, A25T, N53E, A55Q, Q78D, H81S, A83T
Put shortly:
as §1

ZFP SBS#490 (synthetic), sequence (chain, as listed by the source): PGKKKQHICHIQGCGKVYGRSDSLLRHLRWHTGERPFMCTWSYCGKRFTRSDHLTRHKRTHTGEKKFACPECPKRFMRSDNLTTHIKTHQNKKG
ZFP SBS#1250 (synthetic), sequence (chain, as listed by the source): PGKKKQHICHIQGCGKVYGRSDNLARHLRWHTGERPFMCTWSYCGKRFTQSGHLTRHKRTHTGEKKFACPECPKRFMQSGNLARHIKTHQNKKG
ZFP SBS#1140 (synthetic), sequence (chain, as listed by the source): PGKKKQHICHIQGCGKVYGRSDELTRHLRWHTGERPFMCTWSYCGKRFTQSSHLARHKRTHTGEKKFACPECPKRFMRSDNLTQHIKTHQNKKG

B1: ACGTAGTAG (dsDNA)
DNA 1: ACGTAGTAG
DNA 2: CTACTACGT
The Kd is the concentration at which binding is half-saturated. High values mean a looser complex, low ones a tighter complex. For the molecule B1, the equilibrium dissociation constant (Kd) amounted to 0.23 nM in series [1]; 1.4 nM in series [2]; 0.69 nM in series [3]; 0.69 nM in series [4]; 0.118 nM in series [5].

B2: CTGGATGTT (dsDNA)
DNA 1: CTGGATGTT
DNA 2: AACATCCAG
B2 had a Kd in [6] of 0.313 nM.

B3: GAAGGAGAG (dsDNA)
DNA 1: GAAGGAGAG
DNA 2: CTCTCCTTC
For the molecule B3, the results for the Kd in series [7] and in [8] were 0.31 nM and 0.065 nM, respectively.

B4: ACGGCCGAG (dsDNA)
DNA 1: ACGGCCGAG
DNA 2: CTCGGCCGT
Take B4: the dissociation constant (Kd) in series [9] worked out at 0.535 nM; in series [10], 12 nM.

B5: CCGGGAGCG (dsDNA)
DNA 1: CCGGGAGCG
DNA 2: CGCTCCCGG
As to B5, the Kd in series [11] is 0.26 nM; in [12], 0.228 nM.

B6: TGGTAGGGGG (dsDNA)
DNA 1: TGGTAGGGGG
DNA 2: CCCCCTACCA
The molecule B6 gave a dissociation constant Kd in [13] of 35 nM.

B7: GGAGAGGTTT (dsDNA)
DNA 1: GGAGAGGTTT
DNA 2: AAACCTCTCC
For the molecule B7, the values for the Kd in series [14] and in series [15] were 76.9 nM and 110 nM, respectively.

B8: GGGGAGGCA (dsDNA)
DNA 1: GGGGAGGCA
DNA 2: TGCCTCCCC
In [16], B8 yielded an equilibrium dissociation constant (Kd) of 0.056 nM.

B9: TAGGGGGTGG (dsDNA)
DNA 1: TAGGGGGTGG
DNA 2: CCACCCCCTA
For the molecule B9, binding in [17] was characterised by a dissociation constant (Kd) of 1.5 nM.

B10: TGGGACCTG (dsDNA)
DNA 1: TGGGACCTG
DNA 2: CAGGTCCCA
In the case of B10, the figures for the equilibrium dissociation constant (Kd) in series [18] and in [19] were 0.635 nM and 0.113 nM, respectively.

B11: GTGGTTGCG (dsDNA)
DNA 1: GTGGTTGCG
DNA 2: CGCAACCAC
Take B11: the dissociation constant (Kd) in series [20] was determined as 0.117 nM; in series [21], 0.051 nM.

B12: AAGGGTGCG (dsDNA)
DNA 1: AAGGGTGCG
DNA 2: CGCACCCTT
Regarding B12, the Kd worked out at 8.2 nM in [22] and 0.3 nM in [23].

B13: AAGGGAGAC (dsDNA)
DNA 1: AAGGGAGAC
DNA 2: GTCTCCCTT
As for B13, the equilibrium dissociation constant (Kd) in series [24] was determined as 0.383 nM; in [25], 0.213 nM.

B14: GGGGTTGAA (dsDNA)
DNA 1: GGGGTTGAA
DNA 2: TTCAACCCC
With B14, the results for the dissociation constant Kd in [26] and in series [27] were 0.02 nM and 0.101 nM, respectively.

B15: GAGGTGGCC (dsDNA)
DNA 1: GAGGTGGCC
DNA 2: GGCCACCTC
B15: binding in series [28] was put at a Kd of 0.5 nM.

B16: ATGGACTTG (dsDNA)
DNA 1: ATGGACTTG
DNA 2: CAAGTCCAT
On to B16, for which the figures for the dissociation constant (Kd) in series [29], in series [30] and in [31] were 7 nM, 1.7 nM and 12 nM, respectively.

B17: GAATAGGGG (dsDNA)
DNA 1: GAATAGGGG
DNA 2: CCCCTATTC
B17 had a dissociation constant Kd in [32] of 25 nM.

B18: GTCGCGGTG (dsDNA)
DNA 1: GTCGCGGTG
DNA 2: CACCGCGAC
On to B18, for which the dissociation constant Kd turned out to be 0.044 nM in series [33] and 0.102 nM in series [34].
